For two molecules, IC50 and Kd results are on record in PMC4116148 (Biochemistry, 2014).

The target of experiment [1] is dynamin GTPase activity. Particulars: biochemical assay of dynamin GTPase activity; cited from earlier work.
Experiment [2] addresses T1, cNPF1 (head-to-tail cyclic).
T1 chain: YNPFEEGG
Description: ITC. On the technique in general: Isothermal titration calorimetry measures the heat released or taken up as one component is titrated into another.

Experiment [3] concerns the target T2, cNPF2Flu (reading uncertain).
T2 chain: cyclo(YNPFEE[code γ]K(fluorescein))
Kind of experiment: fluorescence polarization. A general note: Fluorescence polarisation rises when a labelled molecule tumbles more slowly, as on binding a larger partner.

In experiment [4] the target is T3, cNPF1Flu.
T3 chain: cyclo(YNPFEEGK(fluorescein))
Kind of experiment: fluorescence polarization.

Experiment [5] deals with T4, cNPF5Flu.
T4 chain: cyclo(YNPFEAGK(fluorescein))
Description: fluorescence polarization.

In experiment [6] the target is T5, cNPF6Flu.
T5 chain: cyclo(YNPFEQGK(fluorescein))
Kind of experiment: fluorescence polarization.

Experiment [7] has as its target T6, cNPF3Flu.
T6 chain: cyclo(YNPFEEK(fluorescein))
Kind of experiment: fluorescence polarization.

Experiment [8] has as its target T7, cNPF4Flu.
T7 chain: cyclo(YNPFAEGK(fluorescein))
Kind of experiment: fluorescence polarization.

Experiment [9] concerns the target T8, cNPF1B (SMILES CC(=O)NCCCC[C@@H]1NC(=O)CNC(=O)[C@H](CCC(=O)O)NC(=O)[C@H](CCC(=O)O)NC(=O)[C@H](Cc2ccccc2)NC(=O)[C@@H]2CCCN2C(=O)[C@H](CC(N)=O)NC(=O)[C@H](Cc2ccc(O)cc2)NC1=O).
T8 chain: cyclo(YNPFEEGK(Ac))
Description: fluorescence polarization competition.

Experiment [10] has as its target T9, cAPA (head-to-tail cyclic).
T9 chain: YAPAEEGG
Kind of experiment: fluorescence polarization competition.

For experiment [11], the target named is T1, cNPF1. Description: fluorescence polarization competition.
In experiment [12] the target is T2, cNPF2Flu. Description: fluorescence polarization.
Experiment [13] concerns the target T3, cNPF1Flu. Kind of experiment: fluorescence polarization.
Experiment [14] addresses T4, cNPF5Flu. Description: fluorescence polarization.
Experiment [15] has as its target T5, cNPF6Flu. Kind of experiment: fluorescence polarization.
The target in experiment [16] is T10, cAPAFlu.
T10 chain: cyclo(YAPAEEGK(fluorescein))
Kind of experiment: fluorescence polarization.

Experiment [17] concerns the target T6, cNPF3Flu. Description: fluorescence polarization.
In experiment [18] the target is T7, cNPF4Flu. Kind of experiment: fluorescence polarization.

Read-outs that look alike come from different tables or passages of the source. Non-standard residues stand in square brackets, D forms with d. fluorescein = fluorescein: fluorescein label on the Lys side chain; code γ = not defined here

For the molecule `O=C(N/N=C/c1ccc(O)c(O)c1)c1cc2ccccc2cc1O` [dynasore], the IC50 – broadly, the concentration that gives 50% inhibition – in experiment [1] is about 15 µM.

B1: EHD1 EH domain EH (protein)
chain: VGKDKPTYDEIFYTLSPVNGKITGANAKKEMVKSKLPNTVLGKIWKLADVDKDGLLDDEEFALANHLIKVKLEGHELPADLPPHLVPPSKRRHE
Take B1: the Kd (commonly the constant that tells how readily two partners part at equilibrium) in experiment [2] amounted to 9.9 µM; in [3], 20.5 µM; in experiment [4] it was 16.8 µM; in experiment [5] it was 28.3 µM; in [6], 34 µM; in experiment [7], 57.8 µM. Further, the Kd in [8] is 46.7 µM; in [12] it was 4.5 µM; in experiment [13], 3.3 µM; in [14], 8.7 µM; in experiment [15], 12.8 µM; in experiment [16], over 67 µM. In addition, the Kd in experiment [17] turned out to be 11.3 µM; in experiment [18], 17.4 µM. For the same molecule, the figures for the IC50 in experiment [9], in experiment [10] and in [11] were 100 µM, over 450 µM and 49.2 µM, respectively.
